Experimental data from US5445951A, “Regioselective enzymatic deacylation of sucrose esters in anhydrous organic media” (priority 1993, dated 1995).

B1: papain: Sigma, Papaya latex (protein, UniProt P00784 134-345, looked up)
Papain: IPEYVDWRQKGAVTPVKNQGSCGSCWAFSAVVTIEGIIKIRTGNLNEYSEQELLDCDRRSYGCNGGYPWSALQLVAQYGIHYRNTYPYEGVQRYCRSREKGPYAAKTDGVRQVQPYNEGALLYSIANQPVSVVLEAAGKDFQLYRGGIFVGPCGNKVDHAVAAVGYGPNYILIKNSWGTGWGENGYIRIKRGTGNSYGVCGLYTSSFYPVKN
B2: lipase type II: Sigma, porcine pancreas, 50 U/mg (protein, UniProt P00591 1-450, looked up)
Pancreatic triacylglycerol …: SEVCFPRLGCFSDDAPWAGIVQRPLKILPWSPKDVDTRFLLYTNQNQNNYQELVADPSTITNSNFRMDRKTRFIIHGFIDKGEEDWLSNICKNLFKVESVNCICVDWKGGSRTGYTQASQNIRIVGAEVAYFVEVLKSSLGYSPSNVHVIGHSLGSHAAGEAGRRTNGTIERITGLDPAEPCFQGTPELVRLDPSDAKFVDVIHTDAAPIIPNLGFGMSQTVGHLDFFPNGGKQMPGCQKNILSQIVDIDGIWEGTRDFVACNHLRSYKYYADSILNPDGFAGFPCDSYNVFTANKCFPCPSEGCPQMGHYADRFPGKTNGVSQVFYLNTGDASNFARWRYKVSVTLSGKKVTGHILVSLFGNEGNSRQYEIYKGTLQPDNTHSDEFDSDVEVGDLQKVKFIWYNNNVINPTLPRVGASKITVERNDGKVYDFCSQETVREEVLLTLNPC
B3: alcalase: Novo Nordisk, Bacillus licheniformis (protein, UniProt P00780 106-379, looked up)
Subtilisin Carlsberg: AQTVPYGIPLIKADKVQAQGFKGANVKVAVLDTGIQASHPDLNVVGGASFVAGEAYNTDGNGHGTHVAGTVAALDNTTGVLGVAPSVSLYAVKVLNSSGSGSYSGIVSGIEWATTNGMDVINMSLGGASGSTAMKQAVDNAYAKGVVVVAAAGNSGSSGNTNTIGYPAKYDSVIAVGAVDSNSNRASFSSVGAELEVMAPGAGVYSTYPTNTYATLNGTSMASPHVAGAAALILSKHPNLSASQVRNRLSSTATYLGSSFYYGKGLINVEAAAQ

Assays:
[1] = as obtained from supplier; cited from earlier work
[2] = SOP hydrolytic enzyme screen in heptane with n-butanol; type: biochemical; conditions: 24 hrs; for SheptaP's ([…]): HPLC peak […]; for SOP: residual SOP; on SheptaP's ([…]): HPLC peak 8.2 min
Method: To extend the scope and utility of this study, sucrose octapropionate was synthesized and used as substrate in enzyme catalyzed deacylation reactions. […] The hydrolytic enzymes were screened for their capability to deacylate SOP in heptane with n-butanol as the nucleophile. After 24 hrs incubation aliquots were analyzed by HPLC.
Enzyme screening for SOP deacylation in heptane. A scintillation vial was charged successively with 100 mg of powdered enzyme as received or prepared as described and 1.0 ml of 20 mM sucrose octapropionate (SOP) and 200 mM butanol dissolved in an organic solvent. Following a 5 sec sonication, the vial was incubated in a controlled-temperature shaker at 45° C. and 300 RPM for 24 hrs. A 200 μl aliquot of the reaction mixture was withdrawn and centrifuged. The supernatant was collected and 10 μl of this solution was analyzed by HPLC.

[3] = type: physicochemical; conditions: estimated from known log P values / increments
From the text: ^a) log P is a measurement of the solvent hydrophobicity (logarithm o
the solvent partition coefficient between noctanol and water [Rekker, "Th
Hydrophobic Fragmental Constant", Elsevier, Amsterdam (1977)]). The log P
values from this table are from Laane et al. , Biotechnol Bioeng. 30,81

lipase AY 30 = assay: Effect of the solvent on lipase AY 30 SOA deacetylation; type: biochemical, Candida cylindracea; conditions: lipase AY 30, solvent as labelled, 24 hrs
[4] = SOP deacylation catalyzed by pH precipitated enzymes in diisopropyl ether; type: biochemical; conditions: for buffer pH (optimal pH for enzyme activity in anhydrous media): SOP deacylation; for SOP / SheptaP's / ShexaP's: diisopropyl ether, 24 hrs; for capability of deacetylating SOP: pH precipitated, in words
Method: To increase the number and/or activities of enzymes active with SOP, pH precipitation experiments, as described for SOA, were undertaken.
(§1) The pH of commercial powdered enzymes was adjusted in the following way: The enzyme (3 g) was dissolved in 25 ml of an appropriate buffer and the pH adjusted with dilute NaOH or citric/phosphoric acid solution. Cold acetone (37.5 ml at -20° C.) was added and the precipitate collected on a medium porosity glass funnel and dried overnight at 2 millitorr. The protein pellet was ground to a fine powder and equilibrated at 4° C. over saturated aqueous potassium carbonate (RH: 43%) for 24 hrs.

[5] = Activity and regioselectivity of enzymes for SOA deacetylation; type: biochemical; conditions: for buffer pH (optimal pH for enzyme activity in anhydrous diisopropyl ether): SOA deacetylation; for % conv: total of all sucrose hepta and hexa acetates; for regioselectivity of SOA deacetylation: in words
Method: An important aspect of this work was to assign, unequivocally, the structures of all sucrose hepta-, hexa-, and pentaacetates obtained by enzymatic deacetylation of SOA. These structures were assigned by perdeuterioacetylation followed by ^1 H-NMR, as described by Rathbone E. B., Carbohydr. Res., 205,402 (1990).
HPLC analysis. Routine screening was performed on a Supelcosil LC-18-DB column (150×4.6 mm, 5μ) using an isocratic mode with either acetonitrile/water (35/65) or acetonitrile/water (60/40) as eluant for reactions involving sucrose octaacetate (SOA) and sucrose octapropionate (SOP), respectively. All flow rates were 1.0 ml/min with UV detection at 220 nm. To identify all products from SOA deacetylation, a gradient mode was employed using 15% to 35% acetonitrile in water over 40 minutes followed by 35/65 acetonitrile/water isocratic elution for 20 minutes. To screen nucleophiles for SOA deacetylation, an isocratic elution mode was employed using 30/70 acetonitrile/water for 16 min followed by a gradient from 30% to 35% acetonitrile in water over 5 min and finally isocratic elution using 35/65 acetonitrile/water for 16 min. To assess the enzyme regiochemistry for SOA deacetylation, an isocratic elution mode was employed using 25/75 acetonitrile/water for 55 minutes.
Identification of the Sucrose Hepta, Hexa or Pentaacetates Obtained Enzymatically. The fraction of sucrose hepta, hexa or pentaacetates were identified as follows. The compound(s) of interest was dissolved in 1.0 ml 99.0 atom % pyridine--d5 followed by addition of 1.0 ml 99 +atom % acetic anhydride--d6. The resulting solution was shaken at 45° C. and 300 RPM for several hours until TLC analysis (silica gel, 9/1 CHCl3 /MeOH) indicated complete reaction. The reaction mixture was evaporated in vacuo and the residue washed several times with water to remove residual pyridine-d5 and/or acetic anhydride-d6. The resulting oily solid was dissolved in 5 ml off chloroform and passed through Whatmann 12.5 cm 1 PS silicone treated filter paper to remove water.
as §1
(§2) Enzyme and Solvent Screening for SOA Deacetylation. A scintillation vial was charged successively with 100 mg of powdered enzyme as received or prepared as described and 1.0 ml of 20 mM sucrose octaacetate (SOA) dissolved in an organic solvent. Following a 5 sec sonication, the vial was incubated in a controlled-temperature shaker at 45° C. and 300 RPM for 24 hrs. A 200 μl aliquot of the reaction mixture was withdrawn and centrifuged. The supernatant was collected and evaporated under a stream of N2. The residue was reconstituted in 200 μl of acetonitrile and 10 μl of this solution was analyzed by HPLC.

[6] = SOA deacetylation catalyzed by pH precipitated enzymes in diisopropyl ether; type: biochemical; conditions: for buffer pH (optimal pH for enzyme activity in anhydrous solvents): SOA deacetylation; for SheptaAs / ShexaAs / SOA: diisopropyl ether, 24 hrs incubation, HPLC; for SOA: residual SOA
Method: A wide variety of hydrolytic enzymes were initially screened for their ability to regioselectively deacetylate SOA in organic solvents. […] Enzyme activity is dependent upon the presence of a minimum shell of water surrounding the enzyme. […] It is known that one way to improve the catalytic power of an enzyme in organic solvent is to use it in the right ionic state.
as §1, §2

[7] = Solubility in hydrophobic solvents; type: physicochemical; conditions: more hydrophobic solvents, e.g., hexane, cyclohexane, heptane, octane
[8] = HPLC sucrose heptaacetate peak height

Molecule | enzyme activity [1] [U/mg] | SheptaP's ([…]) [2] | SOP [2] [%] | log P [3] | SOA (lipase AY 30) [%] | SheptaA (lipase AY 30) [%] | ShexaA (lipase AY 30) [%] | buffer pH (optimal pH for enzyme activity in anhydrous media) [4] | SOP [4] [%] | SheptaP's [4] [%] | ShexaP's [4] [%] | buffer pH (optimal pH for enzyme activity in anhydrous diisopropyl ether) [5] | % conv [5] [%] | buffer pH (optimal pH for enzyme activity in anhydrous solvents) [6] | SheptaAs [6] [%] | ShexaAs [6] [%] | SOA [6] [%] | other results
bromelain | 22.9 | 0.7 | 99.0 | – | – | – | – | – | – | – | – | – | – | – | – | – | – | SheptaP's (9.6 min) ([2]; HPLC peak 9.6 min): 0.3
CC1CCC(C)O1 (stereo not drawn) [2,5-dimethyl THF, 2,5-dimethyltetrahydrofuran] | – | – | – | 1.5 | 96.2 | 3.8 | 0 | – | – | – | – | – | – | – | – | – | – | –
CC1CCCO1 (stereo not drawn) [2-methyl THF, 2-methyltetrahydrofuran] | – | – | – | 1.0 | 96.2 | 3.8 | 0 | – | – | – | – | – | – | – | – | – | – | –
chymotrypsin | 48 | 3.9 | 96.1 | – | – | – | – | 8.0 | 98.2 | 1.8 | 0 | 8.0 | < 6 | 8.0 | 2.5 | 0 | 97.5 | –
CCOCCOCC [ethylene glycol diethyl ether] | – | – | – | 0.87 | 85.0 | 13.5 | 1.5 | – | – | – | – | – | – | – | – | – | – | –
CCC(=O)OC[C@H]1O[C@@](COC(=O)CC)(O[C@H]2O[C@H](COC(=O)CC)[C@@H](OC(=O)CC)[C@H](OC(=O)CC)[C@H]2OC(=O)CC)[C@@H](OC(=O)CC)[C@@H]1OC(=O)CC [SOP, sucrose octapropionate] | – | – | – | – | – | – | – | – | – | – | – | – | – | – | – | – | – | solubility versus SOA [7]: significantly enhanced solubility
CC1(C)CCC(C)(C)O1 [2,2,5,5-tetramethyl THF, 2,2,5,5-tetramethyltetrahydrofuran] | – | – | – | 2.5 | 68.4 | 31.6 | – | – | – | – | – | – | – | – | – | – | – | –
B1 | 2.8 | 0.9 | 98.8 | – | – | – | – | – | – | – | – | – | – | – | – | – | – | SheptaP's (7.0 min) ([2]; HPLC peak 7.0 min): 0.3
B2 | 50 | 1.7 | 98.1 | – | – | – | – | 7.0 | 96.5 | 3.5 | 0 | 7.0 | 14.1 | 7.0 | 13.5 | 0.6 | 85.9 | capability of deacetylating SOP [4]: capable of deacetylating SOP; regiochemistry 4'OH [5, 8]: 1; regiochemistry 6'OH [5, 8]: 1; regioselectivity of SOA deacetylation [5]: the primary deacetylation product is the 4'- OH heptaacetate; regioselectivity of SOA deacetylation ([5]; listed as Porcine pancreatic lipase): at the 4' position; SheptaP's (9.2 min) ([2]; HPLC peak 9.2 min): 0.2; BuOpropionate ([2]; butyl propionate formed, peak area): 59 cAUs
B3 | – | – | – | – | – | – | – | 9.0 | 81.8 | 15.9 | 2.3 | 9.0 | 28.1 | 9.0 | 39.7 | 10.9 | 49.4 | capability of deacetylating SOP [4]: capable of deacetylating SOP; regiochemistry 1'OH [5, 8]: 13; regiochemistry 6'OH [5, 8]: 2; regioselectivity of SOA deacetylation [5]: primarily at 1'- position with some reaction occurring at the 6'- position; regioselectivity of SOA deacetylation ([5]; listed as Alcalase): at the 1' position and secondarily at the 6' position
